Data on six molecules can be found in US8445431.

No end group written: not given here. Some results are limits rather than exact numbers.

In test [1] the target is recombinant isoform of human Angiotensin Converting Enzyme (rhACE) corresponding to the ectodomain somatic ACE (human), P12821. The test can be described thus: cell-based or functional assay.
Test [2] addresses recombinant isoform of human Angiotensin Converting Enzyme (rhACE) corresponding to the ectodomain somatic ACE (human) (UniProt P12821). The test is described as follows: cell-based or functional assay.
Test [3] has the same target. The test can be described thus: Enzyme inhibition of rhACE with fluorogenic substrate, Dixon plot and KI=IC50/(1+[S]/Km); 45 min pre-incubation, hydrolytic conditions.

recombinant isoform of human Angiotensin Converting Enzyme (rhACE) corresponding to the ectodomain somatic ACE (human), P12821, sequence (P12821 30-1256): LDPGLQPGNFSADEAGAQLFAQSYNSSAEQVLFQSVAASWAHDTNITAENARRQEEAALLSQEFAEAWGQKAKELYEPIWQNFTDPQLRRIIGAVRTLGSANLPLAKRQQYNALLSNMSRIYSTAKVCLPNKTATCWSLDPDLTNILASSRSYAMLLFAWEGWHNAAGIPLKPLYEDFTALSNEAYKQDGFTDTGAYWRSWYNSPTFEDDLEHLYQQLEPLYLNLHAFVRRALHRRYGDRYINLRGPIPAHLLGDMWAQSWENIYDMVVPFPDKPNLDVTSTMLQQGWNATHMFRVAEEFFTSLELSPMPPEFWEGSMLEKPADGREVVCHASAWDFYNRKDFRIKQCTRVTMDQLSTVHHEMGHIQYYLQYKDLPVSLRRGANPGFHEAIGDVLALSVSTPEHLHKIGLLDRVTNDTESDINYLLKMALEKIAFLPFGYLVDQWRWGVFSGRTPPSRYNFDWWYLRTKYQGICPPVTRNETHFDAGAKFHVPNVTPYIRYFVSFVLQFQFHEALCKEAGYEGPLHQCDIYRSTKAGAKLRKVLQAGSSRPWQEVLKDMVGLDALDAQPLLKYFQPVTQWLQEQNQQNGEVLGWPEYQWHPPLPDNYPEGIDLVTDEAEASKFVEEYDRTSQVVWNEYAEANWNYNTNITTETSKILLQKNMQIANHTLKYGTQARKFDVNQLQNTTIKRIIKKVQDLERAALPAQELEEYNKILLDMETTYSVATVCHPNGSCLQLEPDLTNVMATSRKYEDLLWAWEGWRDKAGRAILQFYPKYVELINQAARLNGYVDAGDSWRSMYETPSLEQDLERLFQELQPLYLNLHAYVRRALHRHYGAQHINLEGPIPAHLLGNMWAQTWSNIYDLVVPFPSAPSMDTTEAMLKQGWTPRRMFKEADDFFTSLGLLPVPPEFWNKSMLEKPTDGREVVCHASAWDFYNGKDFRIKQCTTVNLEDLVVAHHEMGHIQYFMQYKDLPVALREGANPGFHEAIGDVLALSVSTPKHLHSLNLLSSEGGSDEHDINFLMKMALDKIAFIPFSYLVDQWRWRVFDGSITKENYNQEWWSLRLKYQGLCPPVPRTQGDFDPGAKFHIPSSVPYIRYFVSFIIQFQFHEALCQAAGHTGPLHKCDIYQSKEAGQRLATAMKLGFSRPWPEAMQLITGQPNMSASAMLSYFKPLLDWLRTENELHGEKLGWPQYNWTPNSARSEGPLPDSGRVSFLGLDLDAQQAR
recombinant isoform of human Angiotensin Converting Enzyme (rhACE) corresponding to the ectodomain somatic ACE (human), sequence (P12821 30-1256): as above

Gly-Gly-His (also: Cu(II) complex bound by ATCUN motif) [[GGH-Cu]- copper(II) complex of GGH]: in test [1], the IC50 of rhACE inhibition (fluorogenic substrate cleavage) is more than 100 µM.

Consider GGH [GlyGlyHis (GGH) peptide, metal-free], for which the IC50 of rhACE inhibition (fluorogenic substrate cleavage) in test [1] was more than 100 µM.

Turning to YIHPF [TyrIleHisProPhe (YIHPF, Angiotensin II 4-8) peptide, metal-free], in test [1], the IC50 of rhACE inhibition (fluorogenic substrate cleavage) is more than 100 µM.

As for KGHK (also: Cu(II) complex bound by ATCUN motif (free N-term, two peptide N, His3)) [[KGHK-Cu]+ copper(II) complex of KGHK], the IC50 of rhACE inhibition (fluorogenic substrate cleavage) in test [2] was found to be 11 µM. For the same molecule, the inhibition constant Ki in test [3] amounted to 4 µM.

Take KGHK [LysGlyHisLys (KGHK) peptide, metal-free]: the IC50 of rhACE inhibition (fluorogenic substrate cleavage) in test [1] was more than 100 µM.

For the molecule YIHPF (also: Cu(II) complex bound by ATCUN motif) [[YIHPF-Cu]- copper(II) complex of YIHPF], the IC50 of rhACE inhibition (fluorogenic substrate cleavage) in test [1] is more than 100 µM.

For orientation: Ki means a measure of affinity in units of concentration, obtained from inhibition or displacement.
